In the supplement of paper PMC10065799, “High-throughput profiling of sequence recognition by tyrosine kinases and SH2 domains using bacterial peptide display” (eLife, 2023):

How the values were obtained:
Fer (mouse) = test: phosphorylation enrichment, bacterial display (enrichment ratio); higher = better substrate or ligand; peptides without Tyr show the background
AncSZ = test: as above
FGFR1 = FGFR1 (UniProt P11362); test: as above
MERTK = MERTK (UniProt Q12866); test: as above
Fyn = Fyn (UniProt P06241); test: as above
Fyn, sequence (P06241 whole entry, looked up): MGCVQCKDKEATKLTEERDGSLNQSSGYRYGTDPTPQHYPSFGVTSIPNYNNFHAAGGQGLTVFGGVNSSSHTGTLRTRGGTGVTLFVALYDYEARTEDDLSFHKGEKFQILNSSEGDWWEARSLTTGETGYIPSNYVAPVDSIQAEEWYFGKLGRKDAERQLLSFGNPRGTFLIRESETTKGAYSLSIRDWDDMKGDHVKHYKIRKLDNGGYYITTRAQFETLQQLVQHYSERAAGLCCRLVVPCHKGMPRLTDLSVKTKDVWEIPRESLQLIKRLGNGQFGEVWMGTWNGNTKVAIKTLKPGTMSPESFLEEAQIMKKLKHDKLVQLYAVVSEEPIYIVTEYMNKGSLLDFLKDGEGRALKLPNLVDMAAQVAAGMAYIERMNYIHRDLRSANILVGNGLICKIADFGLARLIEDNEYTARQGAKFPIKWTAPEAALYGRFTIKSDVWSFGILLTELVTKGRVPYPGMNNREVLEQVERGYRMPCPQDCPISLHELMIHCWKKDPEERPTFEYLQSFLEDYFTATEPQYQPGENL

FGFR3 = FGFR3 (UniProt P22607); test: as above
Hck = Hck (UniProt P08631); test: as above
Hck, sequence (P08631 whole entry, looked up): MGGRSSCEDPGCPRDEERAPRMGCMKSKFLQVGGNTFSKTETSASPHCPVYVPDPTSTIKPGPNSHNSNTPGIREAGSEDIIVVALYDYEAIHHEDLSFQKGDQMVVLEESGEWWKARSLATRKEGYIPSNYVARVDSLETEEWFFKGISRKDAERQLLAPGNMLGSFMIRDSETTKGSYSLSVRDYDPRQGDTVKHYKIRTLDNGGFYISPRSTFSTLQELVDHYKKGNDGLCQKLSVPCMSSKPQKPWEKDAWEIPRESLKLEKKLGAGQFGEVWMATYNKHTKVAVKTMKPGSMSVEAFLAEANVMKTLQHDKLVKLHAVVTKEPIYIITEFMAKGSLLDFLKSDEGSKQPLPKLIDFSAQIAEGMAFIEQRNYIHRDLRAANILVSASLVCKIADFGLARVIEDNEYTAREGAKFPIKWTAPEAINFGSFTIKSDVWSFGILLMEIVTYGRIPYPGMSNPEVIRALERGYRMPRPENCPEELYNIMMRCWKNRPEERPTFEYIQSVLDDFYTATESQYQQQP

Jak2 = Jak2 (UniProt O60674); test: as above
Fes = Fes (UniProt P07332); test: as above
Fes, sequence (P07332 whole entry, looked up): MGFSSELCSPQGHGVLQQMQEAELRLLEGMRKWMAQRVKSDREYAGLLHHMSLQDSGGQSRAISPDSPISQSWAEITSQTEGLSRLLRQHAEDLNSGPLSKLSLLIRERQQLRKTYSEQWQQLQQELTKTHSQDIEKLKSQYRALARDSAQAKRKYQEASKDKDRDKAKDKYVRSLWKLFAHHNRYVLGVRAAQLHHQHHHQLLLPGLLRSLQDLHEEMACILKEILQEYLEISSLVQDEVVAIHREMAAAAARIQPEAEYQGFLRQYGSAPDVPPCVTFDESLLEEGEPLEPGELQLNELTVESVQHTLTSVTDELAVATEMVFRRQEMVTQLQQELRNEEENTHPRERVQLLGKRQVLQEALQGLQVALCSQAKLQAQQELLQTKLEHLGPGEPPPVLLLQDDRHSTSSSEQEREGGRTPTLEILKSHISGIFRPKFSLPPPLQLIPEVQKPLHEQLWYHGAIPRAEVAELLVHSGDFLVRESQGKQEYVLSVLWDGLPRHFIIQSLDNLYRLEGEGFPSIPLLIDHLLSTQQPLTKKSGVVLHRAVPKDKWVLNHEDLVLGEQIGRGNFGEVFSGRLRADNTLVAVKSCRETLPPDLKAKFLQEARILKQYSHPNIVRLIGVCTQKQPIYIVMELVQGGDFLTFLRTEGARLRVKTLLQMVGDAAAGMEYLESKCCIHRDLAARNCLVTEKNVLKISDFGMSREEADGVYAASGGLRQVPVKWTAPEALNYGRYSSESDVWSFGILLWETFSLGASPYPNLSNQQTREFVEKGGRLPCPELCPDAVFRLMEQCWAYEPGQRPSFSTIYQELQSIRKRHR

c-Abl (mouse) = test: as above
EPHB1 = EPHB1 (UniProt P54762); test: as above
EPHB1, sequence (P54762 whole entry, looked up): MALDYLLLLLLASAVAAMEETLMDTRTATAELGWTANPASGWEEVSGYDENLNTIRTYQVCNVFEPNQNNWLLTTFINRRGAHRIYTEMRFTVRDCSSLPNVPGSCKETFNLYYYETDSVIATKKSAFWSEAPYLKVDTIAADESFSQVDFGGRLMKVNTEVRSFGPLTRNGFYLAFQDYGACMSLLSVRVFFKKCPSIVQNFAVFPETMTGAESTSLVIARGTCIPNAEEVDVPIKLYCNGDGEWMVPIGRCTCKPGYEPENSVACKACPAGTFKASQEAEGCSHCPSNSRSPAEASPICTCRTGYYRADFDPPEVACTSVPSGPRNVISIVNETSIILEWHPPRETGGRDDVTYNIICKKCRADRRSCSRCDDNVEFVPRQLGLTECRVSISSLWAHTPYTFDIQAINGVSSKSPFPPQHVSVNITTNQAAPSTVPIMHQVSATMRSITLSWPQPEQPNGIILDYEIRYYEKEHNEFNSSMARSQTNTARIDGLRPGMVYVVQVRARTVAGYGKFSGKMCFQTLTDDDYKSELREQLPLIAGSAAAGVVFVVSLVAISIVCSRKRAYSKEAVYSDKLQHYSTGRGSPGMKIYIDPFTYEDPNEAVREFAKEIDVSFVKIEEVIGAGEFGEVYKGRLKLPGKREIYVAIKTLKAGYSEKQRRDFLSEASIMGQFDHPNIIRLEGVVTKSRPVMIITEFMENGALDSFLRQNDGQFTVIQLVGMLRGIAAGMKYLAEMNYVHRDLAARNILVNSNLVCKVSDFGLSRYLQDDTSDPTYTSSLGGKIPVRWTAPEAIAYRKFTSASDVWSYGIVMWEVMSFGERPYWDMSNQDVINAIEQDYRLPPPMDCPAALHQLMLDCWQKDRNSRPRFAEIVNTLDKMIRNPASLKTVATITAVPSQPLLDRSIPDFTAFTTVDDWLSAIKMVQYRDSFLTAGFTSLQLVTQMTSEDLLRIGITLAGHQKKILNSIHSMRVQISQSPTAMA

c-Src = test: as above
EPHB2 = EPHB2 (UniProt P29323); test: as above
EPHB2, sequence (P29323 whole entry, looked up): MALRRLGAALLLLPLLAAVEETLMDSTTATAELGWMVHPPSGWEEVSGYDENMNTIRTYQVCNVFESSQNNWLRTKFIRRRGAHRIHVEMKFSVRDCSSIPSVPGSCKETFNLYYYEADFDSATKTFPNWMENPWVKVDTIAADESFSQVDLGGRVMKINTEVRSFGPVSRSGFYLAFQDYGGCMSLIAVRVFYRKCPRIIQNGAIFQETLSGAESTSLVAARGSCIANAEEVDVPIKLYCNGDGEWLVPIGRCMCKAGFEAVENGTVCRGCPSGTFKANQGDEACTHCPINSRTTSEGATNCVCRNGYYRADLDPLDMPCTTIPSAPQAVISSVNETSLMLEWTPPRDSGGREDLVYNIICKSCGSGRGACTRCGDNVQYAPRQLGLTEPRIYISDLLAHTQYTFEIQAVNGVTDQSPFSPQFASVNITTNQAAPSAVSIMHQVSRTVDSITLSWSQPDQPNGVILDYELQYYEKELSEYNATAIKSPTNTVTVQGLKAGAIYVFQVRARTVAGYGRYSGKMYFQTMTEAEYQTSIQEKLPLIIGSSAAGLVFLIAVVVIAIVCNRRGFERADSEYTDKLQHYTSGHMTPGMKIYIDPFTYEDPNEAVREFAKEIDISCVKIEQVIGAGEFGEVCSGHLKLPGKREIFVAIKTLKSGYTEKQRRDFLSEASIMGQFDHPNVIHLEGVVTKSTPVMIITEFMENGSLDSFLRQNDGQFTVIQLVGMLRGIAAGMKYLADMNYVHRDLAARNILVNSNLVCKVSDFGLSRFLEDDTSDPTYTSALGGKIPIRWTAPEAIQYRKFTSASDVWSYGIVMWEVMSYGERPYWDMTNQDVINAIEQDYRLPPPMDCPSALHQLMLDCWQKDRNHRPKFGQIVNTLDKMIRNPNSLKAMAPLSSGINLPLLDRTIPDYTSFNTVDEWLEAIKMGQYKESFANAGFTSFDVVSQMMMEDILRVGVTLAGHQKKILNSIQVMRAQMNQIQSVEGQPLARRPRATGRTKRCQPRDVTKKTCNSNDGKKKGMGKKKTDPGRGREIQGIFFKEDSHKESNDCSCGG

SHP2-C SH2 = test: SH2 binding enrichment of the phosphorylated peptide, bacterial display (enrichment ratio); higher = better substrate or ligand; peptides without Tyr show the background
Grb2 SH2 = Grb2 SH2 (UniProt P62993); test: as above
Grb2 SH2, sequence (P62993 whole entry, looked up): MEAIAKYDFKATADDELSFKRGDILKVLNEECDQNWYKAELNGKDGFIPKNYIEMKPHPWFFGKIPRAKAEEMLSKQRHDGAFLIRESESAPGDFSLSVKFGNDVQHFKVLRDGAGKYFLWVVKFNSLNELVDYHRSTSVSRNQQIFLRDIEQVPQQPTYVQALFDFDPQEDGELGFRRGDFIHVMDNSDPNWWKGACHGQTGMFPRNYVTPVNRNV

c-Src SH2 = test: as above
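Wherever SH2 binding enrichment of the phosphorylated peptide, bacterial display is given: peptide library displayed on the E. coli surface as eCPX fusions, selected cells deep-sequenced, score is each peptide's frequency after selection divided by its frequency in the input.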
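Wherever phosphorylation enrichment, bacterial display is given: 11-residue human phosphosite peptides and single-mutation variants displayed on the E. coli surface, counted by deep sequencing, each peptide's frequency after selection divided by its frequency in the unselected input library; frequency after pTyr selection over input frequency; kinase dosed for 20-30% of maximal phosphorylation in three min.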

FGFR1, sequence (P11362 whole entry, looked up): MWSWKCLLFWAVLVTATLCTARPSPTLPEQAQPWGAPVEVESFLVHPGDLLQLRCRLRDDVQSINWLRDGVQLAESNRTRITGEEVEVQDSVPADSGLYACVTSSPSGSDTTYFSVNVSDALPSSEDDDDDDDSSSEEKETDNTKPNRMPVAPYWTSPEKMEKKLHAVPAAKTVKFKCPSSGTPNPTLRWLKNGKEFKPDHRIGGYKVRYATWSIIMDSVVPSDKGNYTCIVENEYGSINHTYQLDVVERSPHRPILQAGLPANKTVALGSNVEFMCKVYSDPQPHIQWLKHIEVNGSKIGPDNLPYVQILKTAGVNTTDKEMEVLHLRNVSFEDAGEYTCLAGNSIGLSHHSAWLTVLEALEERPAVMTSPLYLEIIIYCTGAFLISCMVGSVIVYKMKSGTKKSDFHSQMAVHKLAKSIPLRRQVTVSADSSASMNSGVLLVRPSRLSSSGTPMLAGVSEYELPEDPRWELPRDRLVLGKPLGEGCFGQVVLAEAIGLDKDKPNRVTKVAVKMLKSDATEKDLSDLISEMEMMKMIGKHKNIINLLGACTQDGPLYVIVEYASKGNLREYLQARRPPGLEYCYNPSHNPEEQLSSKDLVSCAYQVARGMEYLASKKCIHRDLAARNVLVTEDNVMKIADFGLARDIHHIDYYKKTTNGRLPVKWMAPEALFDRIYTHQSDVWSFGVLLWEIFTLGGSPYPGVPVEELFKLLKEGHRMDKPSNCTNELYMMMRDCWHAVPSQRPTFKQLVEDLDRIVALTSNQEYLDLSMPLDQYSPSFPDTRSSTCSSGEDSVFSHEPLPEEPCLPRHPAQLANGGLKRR

Sequence | phosphorylation enrichment (Fer (mouse)) | phosphorylation enrichment (AncSZ) | phosphorylation enrichment (FGFR1) | phosphorylation enrichment (MERTK) | phosphorylation enrichment (Fyn) | phosphorylation enrichment (FGFR3) | phosphorylation enrichment (Hck) | phosphorylation enrichment (Jak2) | phosphorylation enrichment (Fes) | phosphorylation enrichment (c-Abl (mouse)) | phosphorylation enrichment (EPHB1) | phosphorylation enrichment (c-Src) | phosphorylation enrichment (EPHB2) | SH2 binding enrichment (SHP2-C SH2) | SH2 binding enrichment (Grb2 SH2) | SH2 binding enrichment (c-Src SH2)
LLKKMYLMLDN [STAT1_Y203] | 0.521 | 0.883 | 0.395 | 0.401 | 0.38 | 0.721 | 0.434 | 0.939 | 0.996 | 0.643 | 0.571 | 0.305 | 0.381 | 1.24 | 1.14 | 0.957
RFLRGYQQDAY [HLA-A_Y137_R138Q] | 0.64 | 0.894 | 0.548 | 0.665 | 0.349 | 0.633 | 0.404 | 0.803 | 0.81 | 0.843 | 0.519 | 0.715 | 0.535 | 0.713 | 0.631 | 0.43
RPYRPYIIRGM [LRP5_Y1531] | 0.536 | 0.949 | 0.748 | 0.852 | 0.987 | 0.845 | 1.04 | 0.826 | 1.4 | 0.587 | 0.531 | 0.917 | 0.842 | 0.557 | 0.759 | 0.574
AKLVQYYMEHH [PTPN11_Y80_E76K] | 0.447 | 0.774 | 0.633 | 0.983 | 0.469 | 0.549 | 0.637 | 0.799 | 0.839 | 0.709 | 2.46 | 0.615 | 1.21 | 1.75 | 0.936 | 0.718
DLRTGYSVPYG [TGM1_Y370_Y365D] | 0.456 | 0.721 | 0.553 | 0.399 | 0.392 | 0.592 | 0.459 | 0.663 | 0.665 | 0.568 | 0.409 | 0.384 | 0.411 | 0.717 | 0.906 | 9.61
DHKRQYELLKL [KIF4B_Y684_R680H] | 0.505 | 0.472 | 0.342 | 0.367 | 0.395 | 0.52 | 0.415 | 0.514 | 0.697 | 0.511 | 0.448 | 0.411 | 0.429 | 0.76 | 0.79 | 2.31
VEFAKYGSLRG [RET_Y809_YF] | 0.4 | 0.629 | 0.417 | 0.397 | 0.528 | 0.469 | 0.488 | 0.541 | 0.664 | 0.622 | 0.403 | 0.437 | 0.458 | 0.82 | 0.817 | 0.584
HHIDFYKETTN [FGFR1_Y654_K656E_YF] | 0.889 | 1.07 | 1.02 | 0.556 | 1.27 | 1.14 | 1.64 | 0.938 | 2.36 | 0.575 | 1.5 | 0.541 | 2.44 | 0.933 | 1.08 | 0.761
IVAREYYSEAD [CAMK2A_Y106] | 0.586 | 1.03 | 0.618 | 0.455 | 0.474 | 0.81 | 0.557 | 1.01 | 1.2 | 0.664 | 0.557 | 0.548 | 0.552 | 0.645 | 0.886 | 3.2
ALTDNYMFLVI [HAGH_Y61_YF] | 2.88 | 1.37 | 7.04 | 1.97 | 0.615 | 5.16 | 0.869 | 1.49 | 1.62 | 1.22 | 8.31 | 0.733 | 6.12 | 0.441 | 0.68 | 0.366
VEDQFYCVDCF [FHL1_Y208_YF] | 0.874 | 1.61 | 0.703 | 5.12 | 1.44 | 0.863 | 0.926 | 1.35 | 1.29 | 0.867 | 0.748 | 1.73 | 0.697 | 1.64 | 1.71 | 1.32
FLRTGYSIPFG [TGM1_Y370_V372I_YF] | 0.409 | 0.844 | 0.486 | 0.753 | 0.473 | 0.769 | 0.423 | 0.863 | 0.934 | 0.775 | 0.538 | 0.44 | 0.471 | 1.62 | 1.06 | 5.52
NQDRTYYERVR [SPEN_Y632_S635R] | 0.511 | 0.617 | 0.457 | 0.452 | 0.606 | 0.486 | 2.31 | 0.499 | 0.639 | 0.525 | 0.411 | 0.896 | 0.467 | 1.04 | 0.901 | 3.98
QGFDTYFGYLL [ARSB_Y165_R160Q] | 6.45 | 2.72 | 5.78 | 4.3 | 9.48 | 5.48 | 8.44 | 5.92 | 1.64 | 0.92 | 5.42 | 6.32 | 10.3 | 0.561 | 0.596 | 0.327
